Measured values from the supplement of paper PMC10724198.
± gives the standard deviation of the averaged measurements.

Test system: Saccharomyces cerevisiae
Test: protein stability index of tFT-peptide fusion (C-terminal peptide) (PSI (0-1 scale)); higher = more stable (slower turnover)
Conditions: temperature: 30 C
Protocol: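 MPS profiling in S. cerevisiae of the yeast C-terminome library: the last 12 aa of each annotated ORF are fused to the C-terminus of a sfGFP-mCherry timer, after a GGGS linker. Cells are FACS-sorted into 8 mCherry/sfGFP bins and deep-sequenced. PSI runs from 0 (unstable) to 1 (stable); wild type and das1Δ backgrounds, two technical replicates each.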

[1] = genetic background: das1 deletion

| Sequence | protein stability index [1] | protein stability index (genetic background: wild type) |
| --- | --- | --- |
| ENISSPLGKKSR [PSY4 C-terminal 12 aa] | 0.691 ± 0.0098 | 0.706 ± 0.0047 |
| ENYYPSSLTLDI [JLP1 C-terminal 12 aa] | 0.72281 ± 0.00028 | 0.696 ± 0.062 |
| EPTKKGFLVCRM [YMR320W C-terminal 12 aa] | 0.771 ± 0.037 | 0.702 ± 0.05 |
| EQIELKNFFVDV [YCR016W C-terminal 12 aa] | 0.6881 ± 0.0062 | 0.6997 ± 0.0015 |
| EREKVDIHIPQV [BEM3 C-terminal 12 aa] | 0.711 ± 0.02 | 0.701 ± 0.011 |
| ESIEELLRKTLE [ZNG1 C-terminal 12 aa] | 0.687 ± 0.02 | 0.735 ± 0.067 |
| ESIVDFVERHED [IMO32 C-terminal 12 aa] | 0.714 ± 0.017 | 0.691 ± 0.019 |
| ESPIDAEKNFAR [INA1 C-terminal 12 aa] | 0.693 ± 0.0098 | 0.6821 ± 0.0024 |
| ETMGARLKIDGK [YJR149W C-terminal 12 aa] | 0.7079 ± 0.0065 | 0.689 ± 0.011 |
| ETPSQTSQEATQ [ERG6 C-terminal 12 aa] | 0.731 ± 0.0089 | 0.722 ± 0.015 |
| ETSITNDNESQQ [PPZ1 C-terminal 12 aa] | 0.695 ± 0.0074 | 0.701 ± 0.04 |
| EVALAPSSNMIF [YKL083W C-terminal 12 aa] | 0.716 ± 0.02 | 0.713 ± 0.0034 |
| EVDELPEGYDRS [TAH1 C-terminal 12 aa] | 0.6846 ± 0.0037 | 0.6764 ± 0.002 |
| EVLAADNTRVPC [YLL067C C-terminal 12 aa] | 0.6968 ± 0.0039 | 0.677 ± 0.028 |
| EVLERSVLLRKR [MDJ2 C-terminal 12 aa] | 0.699 ± 0.017 | 0.688 ± 0.01 |
| EVSQYAAFFQDD [CTM1 C-terminal 12 aa] | 0.719 ± 0.02 | 0.712 ± 0.028 |
| EVTAKTSLVSPK [ROX1 C-terminal 12 aa] | 0.7021 ± 0.004 | 0.676 ± 0.018 |
| EVVKRYLKMRQD [PUP3 C-terminal 12 aa] | 0.7 ± 0.011 | 0.5999 ± 0.0049 |
| FAFSFPITNVLE [YAL016C-B C-terminal 12 aa] | 0.703 ± 0.012 | 0.683 ± 0.049 |
| FAQDLMKCTYKI [NUP145 C-terminal 12 aa] | 0.708 ± 0.0095 | 0.656 ± 0.018 |
| FATFELAMRLLG [YMC1 C-terminal 12 aa] | 0.674 ± 0.015 | 0.194 ± 0.013 |

| Sequence | protein stability index [1] | protein stability index (genetic background: wild type) |
| --- | --- | --- |
| FCESDSIKMYPT [FYV10 C-terminal 12 aa] | 0.706 ± 0.0071 | 0.698 ± 0.026 |
| FCISFPCFGLSI [AIM26 C-terminal 12 aa] | 0.679 ± 0.037 | 0.704 ± 0.003 |
| FCLQCFKDYCYS [SPO1 C-terminal 12 aa] | 0.6444 ± 0.0063 | 0.654 ± 0.032 |
| FDSEHFYSPVQT [PRP3 C-terminal 12 aa] | 0.7065 ± 0.0023 | 0.71 ± 0.024 |
| FDVELVDVKSAA [FPR2 C-terminal 12 aa] | 0.6795 ± 0.0018 | 0.687 ± 0.037 |
| FEVDVDSLFKLY [MET1 C-terminal 12 aa] | 0.707 ± 0.018 | 0.442 ± 0.0068 |
| FFHRISHFLESA [YLR299C-A C-terminal 12 aa] | 0.704 ± 0.018 | 0.695 ± 0.025 |
| FGDCHLENSHLH [SPO75 C-terminal 12 aa] | 0.7041 ± 0.0012 | 0.719 ± 0.017 |
| FGICAIHWGIKV [COQ5 C-terminal 12 aa] | 0.385 ± 0.02 | 0.411 ± 0.013 |
| FGLFKKKNKSKK [SVL3 C-terminal 12 aa] | 0.727 ± 0.027 | 0.726 ± 0.073 |
| FGSSRSEWYLAL [YPL114W C-terminal 12 aa] | 0.701 ± 0.029 | 0.709 ± 0.031 |
| FGWFDMNMEQGF [SEF1 C-terminal 12 aa] | 0.7562 ± 0.0074 | 0.757 ± 0.023 |
| FHSMAHLSLHQY [YOR394C-A C-terminal 12 aa] | 0.7202 ± 0.00097 | 0.478 ± 0.091 |
| FIREFVLKNYSK [SNO2 C-terminal 12 aa] | 0.669 ± 0.0099 | 0.71 ± 0.068 |
| FIYKRNKKFILN [YPQ1 C-terminal 12 aa] | 0.725 ± 0.014 | 0.21 ± 0.019 |
| FKCVHTPCNVYI [YER078W-A C-terminal 12 aa] | 0.679 ± 0.0076 | 0.665 ± 0.037 |
| FKVDDNVDFPSA [RPN2 C-terminal 12 aa] | 0.681 ± 0.016 | 0.744 ± 0.089 |
| FLLVLFFICIIL [YOL014W C-terminal 12 aa] | 0.366 ± 0.013 | 0.3063 ± 0.0029 |
| FMGGFLSKGNKR [ROG3 C-terminal 12 aa] | 0.706 ± 0.012 | 0.683 ± 0.029 |
| FMGLGCVISEEL [TFB3 C-terminal 12 aa] | 0.693 ± 0.01 | 0.685 ± 0.097 |
| FNISDYFSDIHE [ORC5 C-terminal 12 aa] | 0.744 ± 0.02 | 0.7 ± 0.023 |

| Sequence | protein stability index [1] | protein stability index (genetic background: wild type) |
| --- | --- | --- |
| FPFELRREQTEG [PET130 C-terminal 12 aa] | 0.6976 ± 0.0057 | 0.755 ± 0.061 |
| FPKLALVCTIFS [YGR146C-A C-terminal 12 aa] | 0.369 ± 0.019 | 0.403 ± 0.009 |
| FQERIKNKNILK [CWC27 C-terminal 12 aa] | 0.739 ± 0.008 | 0.729 ± 0.0083 |
| FRCKFKERKVDG [REP1 C-terminal 12 aa] | 0.682 ± 0.0088 | 0.674 ± 0.015 |
| FRSSAGLRSSKV [MIC10 C-terminal 12 aa] | 0.742 ± 0.016 | 0.706 ± 0.011 |
| FSGDMSFTVYQL [POA1 C-terminal 12 aa] | 0.741 ± 0.01 | 0.699 ± 0.041 |
| FSIVALEVWRVG [OXR1 C-terminal 12 aa] | 0.552 ± 0.013 | 0.567 ± 0.022 |
| FSSEQGNPKEEK [FMP10 C-terminal 12 aa] | 0.702 ± 0.034 | 0.733 ± 0.03 |
| FTIYEKVLVMLA [CTP1 C-terminal 12 aa] | 0.286 ± 0.017 | 0.20202 ± 3.5e-06 |
| FTRRGWSSFFKQ [PCL9 C-terminal 12 aa] | 0.684 ± 0.0086 | 0.6647 ± 0.0024 |
| FVDGIANSKKST [SRB7 C-terminal 12 aa] | 0.699 ± 0.01 | 0.682 ± 0.023 |
| FVFVNEFDVYTY [GPI12 C-terminal 12 aa] | 0.716 ± 0.018 | 0.704 ± 0.033 |
| FWEKRWKDGWDE [ERV1 C-terminal 12 aa] | 0.756 ± 0.053 | 0.681 ± 0.031 |
| FYLHGNGSDNLF [YGR153W C-terminal 12 aa] | 0.7164 ± 0.0016 | 0.711 ± 0.031 |
| GAALMALLGKWA [ZRT2 C-terminal 12 aa] | 0.725 ± 0.021 | 0.6381 ± 0.0041 |
| GARIGLQGYKSH [YNL184C C-terminal 12 aa] | 0.70081 ± 0.00013 | 0.688 ± 0.015 |
| GDKLISPLKKAF [TKL1 C-terminal 12 aa] | 0.675 ± 0.013 | 0.711 ± 0.044 |
| GDYSFNGRVTDF [SDH8 C-terminal 12 aa] | 0.711 ± 0.015 | 0.697 ± 0.011 |
| GEKKQKGQALQF [RPL42A C-terminal 12 aa] | 0.68 ± 0.025 | 0.662 ± 0.051 |
